Consider 22 sequences from the DeepSol protein solubility set.

The nature of the data set: soluble on expression in E. coli; label from the status in PepcDB or PDB records.
In the case of “MGSDKIHHHHHHMAPDTSMSSRDALPPLACLRAFEAAARHASFTQAGSELHLTQSAVSRQIKRLEDDLGRPLFERHYEGLRLTPAGERYFGVVQRLLRDLRDETARLRRRGDDRQLTLASSPTIASIWLARQLPDFQRAHPHIEIRILTVEDPHRLDLAEFDLGIYYHVPHEVDPPGLDAEAIFSHEEVAAVCSPAYLARHGDIRDADDLLARHTLMVVEDHYHDWLTWEGWYQAQNLAWRTPEHSLRANSFQLLMNAILAGQGVTLGWTRLLAADLAQHNLVQALPHTLPSRGRLSLLTPQHRHLTEPMRAFRAWVLGPA”, the “soluble on expression in E. coli” value was “not soluble”.
The value for “MHHHHHHSSGVDLGTENLYFQSMNGPEDLPKSYDYDLIIIGGGSGGLAAAKEAAQYGKKVMVLDFVTPTPLGTRWGLGGTCVNVGCIPKKLMHQAALLGQALQDSRNYGWKVEETVKHDWDRMIEAVQNHIGSLNWGYRVALREKKVVYENAYGQFIGPHRIKATNNKGKEKIYSAERFLIATGERPRYLGIPGDKEYCISSDDLFSLPYCPGKTLVVGASYVALECAGFLAGIGLDVTVMVRSILLRGFDQDMANKIGEHMEEHGIKFIRQFVPIKVEQIEAGTPGRLRVVAQSTNSEEIIEGEYNTVMLAIGRDACTRKIGLETVGVKINEKTGKIPVTDEEQTNVPYIYAIGDILEDKVELTPVAIQAGRLLAQRLYAGSTVKCDYENVPTTVFTPLEYGACGLSEEKAVEKFGEENIEVYHSYFWPLEWTIPSRDNNKCYAKIICNTKDNERVVGFHVLGPNAGEVTQGFAAALKCGLTKKQLDSTIGIHPVCAEVFTTLSVTKRSGASILQAGCGG” was “soluble”; that for “NKDNPYIKPDDPRPVVLFCSTFSPSLTCAPEVFEQIKALSQKSQWRWLVQFHPKMKPSIVEQYKTLENENLQFVETDNVIPLLQAGDVMLCDTSSILLMFLMQRKPVVTFKNQSPKAHLIDINRVEEIEPAITRALSRTDDLMAHIHDYCNQIHPTGDGQSSQRVLAATDA” was “not soluble”; that for “MGSDKIHHHHHHMNIKEKIAVQLYSVRKEMERDLEGTLRKMHEIGFRYVQLDGMRGNDPSEVRRLLQKYELKVIGMHIKHDRFMNDLDGIIEEAYFFDCKTVFDKYIEEEDQTTAGYTATKAALINAAEKLHPLGFRIGLHNPEYDFNECIHGRRVMDYITDPVDGICIYAEPDTYWIRAAGHDETEFIKRYSGRAPIVHMKDFLSGFELEDMDNNLVEIGQGEVDFRAIIEWGEANGVEYYCIEQDKSKRAMFETLEASYQYLLQL” was “not soluble”.
The value for “MGTVMIRNVYKGVHNMKLENGWETSFLEVVQNSEFKKEALLSQLLCQDSEEVEELVDDYGYEELVEREHDDELAEILGEELFSEMERQVFLSSNPEEKLISFVNGLGFHVLDWIVLLETEFGIDSANFTSDAVKVLEKRFRQFPYIEDKTIFDMTFGESMDVLESVTGLQLKEKMNV” was “not soluble”.
As for “MKKVYLFKLKFNTPYGLRVGGPKEDISTLTPLKIGQHYVIPSSSWKGIFRRTTEVLITNPNHFRGHEGEDVTDDGSLDELLEAKGLENKNDENVRKERKRFIAMWNCPVERLYGSEYFASAVTFSDTLIDAEINQRTHVVIDRKTRKSEEKHLYSEQIVNVNSVRVKVIVRDRIDDWIKTLKFLSEFGTFVGGGKSRGIGYAVLDWKESEYAEVDGLTRKIMFKPLDELKL”, the entry is “soluble”; as for “NLYFQGHMDNVDELRKIENKSSFVSADNMPEYVKGAFISMQDERFYNHHGFDLKGTTRALFSTISDRDVQGGSTITQQVVKNYFYDNDRSFTRKVKELFVAHRVEKQYNKNEILSFYLNNIYFGDNQYTLEGAANHYFGTTVNKNSTTMSHITVLQSAILASKVNAPSVYNINNMSENFTQRVSTNLEKMKQQNYINETQYQQAMSQLN”, “soluble”.
Turning to “MSLSKLGYIPNQAARTLITNKTLTIGLIQKSSAPEIRQNPFNSDVLNGINQACNVRGYSTRMTVSENSGDLYHEVKTMIQSKSVDGFILLYSLKDDPIEHLLNEFKVPYLIVGKSLNYENIIHIDNDNIDAAYQLTQYLYHLGHRHILFLQESGHYAVTEDRSVGFKQYCDDVKISNDCVVIKSMNDLRDFIKQYCIDASHMPSVIITSDVMLNMQLLNVLYEYQLRIPEDIQTATFNTSFLTENATPSQTSVNINPDVLGFTAGNTIIDVLRNETISFREKLISTQIVERVSTTKIEGHHHHHH”, the “soluble on expression in E. coli” value is “soluble”.
Turning to “MSLENHHEAKTKLGQLWKLGNHYLLCGDATKLSDVEKLLQGKKANLVVTDPPYNVAVKSDNKELNESGREKIMNDDMSDEEFDQFLMSVFQNYSNAMRDDSAIYVFHGSSYQREFENSMNAAGIVVRSQCIWVKNNATFGWSQYRWQHEPVFYAHKKKQAPSWYGDRKQTTIWQDDLLEDLPATIWKVPRDDVATYYHPTQKPLSLIAIPVRNSSKRQDIVLDLFGGSGSTLMTCEQLNRICYTLELDPLFCDVIIERFEKSTGIIAELVEGHHHHHH”, the “soluble on expression in E. coli” value is “soluble”.
Consider “MIVLNCIRYLGMTDINEIGRLTLYEYDLLMTGKALAAVDESHKAHKQAWINHQVTATKLVGGKKNKKEVPVYKKFKDFFDYEEEIRKITQEIDEGYDKKGMDLLLKANL”, for which the “soluble on expression in E. coli” value is given as “not soluble”.
Consider “ATRSPGVVISDDEPGYDLDLFCIPNHYAEDLERVFIPHGLIMDRTERLARDVMKEMGGHHIVALCVLKGGYKFFADLLDYIKALNRNSDRSIPMTVDFIRLKSYCNDQSTGDIKVIGGDDLSTLTGKNVLIVEDIIDTGKTMQTLLSLVRQYNPKMVKVASLLVKRTPRSVGYKPDFVGFEIPDKFVVGYALDYNEYFRDLNHVCVISETGKAKYKA”, for which the “soluble on expression in E. coli” value is recorded as “soluble”.
Take “MGSSHHHHHHSSGRENLYFQGHMSKFVITCIAHGENLPKETIDQIAKEITESSAKDVSINGTKKLSARATDIFIEVAGSIVQKDLKNKLTNVIDSHNDVDVIVSVDNEYRQAKKLFVFDMDSTLIYQEVIELIAAYAGVEEQVHEITERAMNNELDFKESLRERVKLLQGLQVDTLYDEIKQKLEVTKGVPELCKFLHKKNCKLAVLSGGFIQFAGFIKDQLGLDFCKANLLEVDTDGKLTGKTLGPIVDGQCKSETLLQLCNDYNVPVEASCMVGDGGNDLPAMATAGFGIAWNAKPKVQKAAPCKLNTKSMTDILYILGYTDDEIYNRQ”: the “soluble on expression in E. coli” value was “soluble”.
On to “MEDPVTGPEEVSGQEQGSLTVQCRYTSGWKDYKKYWCQGVPQRSCKTLVETDASEQLVKKNRVSIRDNQRDFIFTVTMEDLRMSDAGIYWCGITKGGLDPMFKVTVNIGPVPT”, for which the “soluble on expression in E. coli” value is reported as “soluble”.
The value for “MGSDKIHHHHHHMAATSNQIKSKVWDNKQEYHLTIESLRMLLENRIPLIRLKEFATPQECEILVAQAELFNFDCYQNVNPKIERIGITVFEYNRISKAAYFQAVERTTKLRDCIMAASFNPLERLMVKIQECTGATVRIASEPLYGSYYAGLIRKIEQGTQLHIDYAPLEQSKWEIGTVIYQLSWNLYLKFSPNNHGQTRIYDRQWQPGDEQYKLDSYGYGDTVIADADTIAFQPYVGDVFIFNTRNYHTVEPMDGQRVTFTSAIGLLPNGEIILWS” was “not soluble”.
As for “MGSDKIHHHHHHMLKQLILENWKSFRYAELPLDPLTVLIGTNASGKSNVVEALEFLQRIARGENVEAALAGDKTLVSIRGGVEWAARKQETGFTLQTLIQGEDETQDYLYTVQIQTIPEVRVIQEQITFENINQDNVVYNKKHLTVKNPIFPTKSGLENLELHVDINDLMQFFPPDQNILLGDKDFLETLNNVLLPFRNKACKFVVASLKNIFILNPIASNMRNYSRLADDLESDASNIAGVLAALPDDLKLEIELTLSTYIKDLPEGDIKKVWAEKVGRFGTDAMLYCQEEWKPGHSTDIDARSMSDGTLRFLAILTALLTRPEGSQIVIEEIDNGLHPSRAKLLVKILREIGSKRNIDILLTTHNPALLDALGPDTVPFVVVAHRDAETGESKLTLLENIDNFSKLFASYSLGEMTTKGAIERSLSHSE”, the entry is “not soluble”; as for “MASKDAQVTLSRGEQSVKRIKEFNPKKDNFSILLMGIDARPGQSMDKERSDAMVLATFNRKDKSVKLLSIPRDSYVNIPGRGYDKITHAHSLGGRDLSTETVENLLDIPVDYVMEANFSAFKEVVDELGGVPITIKEDYIVRQIKKDTKGKVNLQTGEQTLGGEEALAYVRTRKADTDLKRGERQMEVIKSIINKSKSLTSIPAYDDILDTVGKNVSMNLSLNDAIGLIPFMTSIQTVDTLQLKGSDYQPGKVYYFQLDQENLNEIKQELKQQLDVLEHHHHHH”, “soluble”.
On to “MDLNFDLYMNDVVEQARNEIEHAGYQQLTSAEDVDQVLQQKGTSLVMVNSVCGCAGGIARPAAAHALHYDKLPQRLVTVFAGQDKEATQQAREYFEGYAPSSPSFALIKDGKITEMIERHQIEGHDVMDVINQLQALFDKYCEER”, for which the “soluble on expression in E. coli” value is “not soluble”.
With “MKFSIIVPSYNSEKYIAELLNSLQNQSYDKKDFEVILVDDCSSDNTLNVVEAYKNKLNLIIKQLDTNSGGPGKPRNTALQLAQGEYVFFVDSDDYINKDTLKDVSKFVDQNHADVVLVKMEGVNGRGVPKSMFKETSDAVTLANSRIIYTLSPTKFYRTSLLRDHAIEFPEDLRSAEDQLFTMKAYVNAKRIAVLADKPYYYATKREGEHMSSAYVSPEDFYKVMSLITEEILNSPLENKNEVLGYFIDRHFSFSRTNNFSLKIADDKKEAWMDALGDFIQKVPTVVDELVNDSFKPLLHYARLKDMKHYQMVEESYKNGKFHSYSAQEGTLKIQFDEGEPYFVFKKLVKPDIRMSHFEFNDQGFELELEFISSIINPNHVASMIQLKLLSRNKKEFIYIPLTMNDQTRFKFKADLNDLMPYLIKEKVWDAHLEMRVDNMTIEKRIGNKRVKYPYSKETSTITQYNNQYYRFTPYFTKDFDNLSFYITSNKLNEMLAVEIKDKQTIQLRSLEFNYILSEGMTAVILPHMFTYGYLTSVTTKDTLTYHLSVGEKVKDKDLKKNFKIETPHLVLKYLEHHHHHH”, the “soluble on expression in E. coli” value is on record as “soluble”.
On to “MSQTIGRIEEISFYSASLQDDVTLLVYLPVNYTPLHKHTVVIAQDGRDYFQLGKAHRVIERLRETEEIDRTIIVGIPYKNVHDRKEKYFPNEVKNAAYIRFLAHELAPYIDENYPTYQMGKGRVLIGDSLGGTVSFMTALMYPHTFGKVVMQSPFVDETVMNLAKEFKDPQALELYHVIGTEETAVKRTDGQVSDFVGPNRELNTLLTDRNFITHYEEFEGNHTWKYWQTDLPKAFSHILSMK”, for which the “soluble on expression in E. coli” value is on record as “not soluble”.
“NDDKEAKKEAQEKEKNTPNGLVYTNLDFDSFKATIKNLKDKKVTFKEVNPDIIKDEVFDFVIVNRVLKKIKDLKHYDPMIEKIFDEKGKEMGLNVEIQINPEVKDFFTFKSISTTNKQRCFLSLRGETREILCDNKLYNMLLAVFNSYDPNDLLKHISTVESLKKIFYTITCEAVY”: the “soluble on expression in E. coli” value is “soluble”.
For the sequence “MILHPRPSPIAAAMYQLRDIGVDAIILHGPSGCCFRTARLLEIDGIRVFTSAMGENDFIFGAMDKLRDVIAEVLEYLKKETPKSEKYKIGIVGTCASMIIGEDLESLIDDFDDIIIPVDIHSGLVDNTVGAIRAMDGALNAGLIDYSEYERQKKMLEHHHHHH”, the “soluble on expression in E. coli” value is listed as “soluble”.
The value for “MKQSTIALALLPLLFTPVTKAREVQLQQSGPELVKPGASVKMSCKASGYTFTSYVMHWVKQKPGQGLEWIGYINPYNDGTKYNEKFKGKATLTSDKSSSTAYMELSSLTSEDSAVYYCARGAYKRGYAMDYWGQGTSVTVSSRGGGGSGGGGSGGGGSDLVMSQSPSSLAVSAGEKVTMSCKSSQSLFNSRTRKNYLAWYQQKPGQSPKLLIYWASTRESGVPDRFTGSGSGTDFTLTISSVQAEDLAVYYCKQSYYHMYTFGSGTKLEIKHHHHHGLVPRGSGDPKADNK” was “soluble”.
